B1: IL-10Rβ, full-length subunit of the interleukin 10 receptor (receptor, UniProt Q61190 20-349, looked up)
chain: MIPPPEKVRMNSVNFKNILQWEVPAFPKTNLTFTAQYESYRSFQDHCKRTASTQCDFSHLSKYGDYTVRVRAELADEHSEWVNVTFCPVEDTIIGPPEMQIESLAESLHLRFSAPQIENEPETWTLKNIYDSWAYRVQYWKNGTNEKFQVVSPYDSEVLRNLEPWTTYCIQVQGFLLDQNRTGEWSEPICERTGNDEITPSWIVAIILIVSVLVVFLFLLGCFVVLWLIYKKTKHTFRSGTSLPQHLKEFLGHPHHSTFLLFSFPPPEEAEVFDKLSIISEESEGSKQSPEDNCASEPPSDPGPRELESKDEAPSPPHDDPKLLTSTSEV
notes: Interleukin 10 receptor subunit beta, full length; One tag per copy: Rluc fusion as donor, eYFP fusion as acceptor; also called IL-10Rβ_FL; full-length IL-10Rβ; source: HEK293, transfected, in living cells
B2: IL-10Rα, full-length subunit of the interleukin 10 receptor (receptor, UniProt Q61727 17-575, looked up)
chain: LEFIAYGTELPSPSYVWFEARFFQHILHWKPIPNQSESTYYEVALKQYGNSTWNDIHICRKAQALSCDLTTFTLDLYHRSYGYRARVRAVDNSQYSNWTTTETRFTVDEVILTVDSVTLKAMDGIIYGTIHPPRPTITPAGDEYEQVFKDLRVYKISIRKFSELKNATKRVKQETFTLTVPIGVRKFCVKVLPRLESRINKAEWSEEQCLLITTEQYFTVTNLSILVISMLLFCGILVCLVLQWYIRHPGKLPTVLVFKKPHDFFPANPLCPETPDAIHIVDLEVFPKVSLELRDSVLHGSTDSGFGSGKPSLQTEESQFLLPGSHPQIQGTLGKEESPGLQATCGDNTDSGICLQEPGLHSSMGPAWKQQLGYTHQDQDDSDVNLVQNSPGQPKYTQDASALGHVCLLEPKAPEEKDQVMVTFQGYQKQTRWKAEAAGPAECLDEEIPLTDAFDPELGVHLQDDLAWPPPALAAGYLKQESQGMASAPPGTPSRQWNQLTEEWSLLGVVSCEDLSIESWRFAHKLDPLDCGAAPGGLLDSLGSNLVTLPLISSLQVEE
notes: Interleukin 10 receptor subunit alpha, full length; One tag per copy: Rluc fusion as donor, eYFP fusion as acceptor (plasmids pRL-CMV and pEYFP-N1); also called IL-10Rα_FL; full-length IL-10Rα; source: HEK293, transfected, in living cells

How the values were obtained:
[1] = biological target: IL-10Rβ, full-length subunit of the interleukin 10 receptor (UniProt Q61190); assay: FRET or BRET; BRET saturation assay in living HEK293 cells; full-length Rluc-tagged receptor (plasmid constant, 0.75 ng/mL) with increasing eYFP-tagged TM sequence plasmid; HBSS, coelenterazine H 5 µM, 37 °C
[2] = biological target: IL-10Rα, full-length subunit of the interleukin 10 receptor (UniProt Q61727); assay: as above
TM sequence of IL-10Rβ = assay: FRET or BRET; BRET saturation assay in living HEK293 cells; TM sequence fused to Rluc (plasmid constant, 0.75 ng/mL) with increasing eYFP-fused TM sequence plasmid, wild type or mutant; HBSS, coelenterazine H 5 µM, 37 °C
TM sequence of IL-10Rα = assay: as above
[3] = biological target: the molecule itself; assay: FRET or BRET; BRET saturation assay in living HEK293 cells; full-length Rluc donor (plasmid constant, 0.75 ng/mL) with increasing full-length eYFP acceptor plasmid; HBSS, coelenterazine H 5 µM, 37 °C
[4] = biological target: B2; assay: as above; settings: partners not purified
[5] = biological target: B1; assay: as above; settings: partners not purified

TM sequence of IL-10Rβ (domain or fragment)
BRET50 [1]: 35 mBu | BRET50 [2]: 35 mBu | BRET50 (TM sequence of IL-10Rβ): 78 mBu | BRET50 (TM sequence of IL-10Rα): 141 mBu

TM sequence of IL-10Rα with leucine 248 substituted by glycine (domain or fragment)
decrease of BRET50 against the wild-type TM homodimer (TM sequence of IL-10Rα): 27 % decrease

TM sequence of IL-10Rα (domain or fragment)
BRET50 [1]: 22 mBu | BRET50 [2]: 28 mBu | BRET50 (TM sequence of IL-10Rβ): 109 mBu | BRET50 (TM sequence of IL-10Rα): 190 mBu

B1
BRET50 [3]: 152 mBu | BRET50 [4]: 86 mBu

B2
BRET50 [3]: 28 mBu | BRET50 [5]: 28 mBu

From PMC10216903, “Implication of the Transmembrane Domain in the Interleukin 10 Receptor Platform Oligomerisation” (Cells, 2023)
